The data set addresses nucleolin (cell surface, on RD and Rh30 rhabdomyosarcoma cells) (UniProt P19338). The experiment in a line: FACS cell binding of QD conjugate. The conditions noted are these: overnight 37 C, 5' AminoC6, QD-aptamer 10 nM (Methods; 20 nM in Figure 5b legend) with adherent cells, 12 h/overnight, 5% CO2, conjugates prepared in PBS pH 7.4/1% BSA.

nucleolin (cell surface, on RD and Rh30 rhabdomyosarcoma cells), sequence (P19338 whole entry): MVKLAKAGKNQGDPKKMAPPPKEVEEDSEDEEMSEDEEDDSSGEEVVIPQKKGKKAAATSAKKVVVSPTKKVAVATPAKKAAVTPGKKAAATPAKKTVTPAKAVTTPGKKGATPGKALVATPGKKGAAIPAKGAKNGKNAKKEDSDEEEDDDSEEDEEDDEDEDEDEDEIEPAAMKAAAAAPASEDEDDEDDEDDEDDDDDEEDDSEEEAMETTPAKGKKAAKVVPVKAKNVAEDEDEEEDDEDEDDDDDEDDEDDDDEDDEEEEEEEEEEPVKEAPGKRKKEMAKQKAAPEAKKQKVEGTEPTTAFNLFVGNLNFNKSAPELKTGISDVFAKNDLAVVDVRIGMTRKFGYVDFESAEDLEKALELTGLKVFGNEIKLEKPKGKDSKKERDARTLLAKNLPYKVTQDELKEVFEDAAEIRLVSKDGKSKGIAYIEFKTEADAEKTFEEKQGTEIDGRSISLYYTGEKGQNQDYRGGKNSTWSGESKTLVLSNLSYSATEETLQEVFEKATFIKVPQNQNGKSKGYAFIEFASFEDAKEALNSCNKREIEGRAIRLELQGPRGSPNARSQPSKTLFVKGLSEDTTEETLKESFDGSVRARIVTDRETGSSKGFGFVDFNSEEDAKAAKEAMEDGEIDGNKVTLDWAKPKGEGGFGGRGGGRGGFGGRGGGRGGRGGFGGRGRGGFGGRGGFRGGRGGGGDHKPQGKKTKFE

Regarding “TTGGTGGTGGTGGTTGTGGTGGTGGTGG [AS1411 (AGRO100)]”, the binding signal (fold over QD-NC-AS1411) is, setting by setting: (RD cells) 8.8; (Rh30 cells) 2.2.
